In patent US20070172470:

Experiments:
[1] = biological target: Ser 5 phosphopeptide (28 aa CTD peptide, 4 heptad repeats)
[2] = biological target: Ser 2 phosphopeptide (28 aa CTD peptide, 4 heptad repeats)
RAP74, P35269 = biological target: T1, RAP74, P35269
T1 chain: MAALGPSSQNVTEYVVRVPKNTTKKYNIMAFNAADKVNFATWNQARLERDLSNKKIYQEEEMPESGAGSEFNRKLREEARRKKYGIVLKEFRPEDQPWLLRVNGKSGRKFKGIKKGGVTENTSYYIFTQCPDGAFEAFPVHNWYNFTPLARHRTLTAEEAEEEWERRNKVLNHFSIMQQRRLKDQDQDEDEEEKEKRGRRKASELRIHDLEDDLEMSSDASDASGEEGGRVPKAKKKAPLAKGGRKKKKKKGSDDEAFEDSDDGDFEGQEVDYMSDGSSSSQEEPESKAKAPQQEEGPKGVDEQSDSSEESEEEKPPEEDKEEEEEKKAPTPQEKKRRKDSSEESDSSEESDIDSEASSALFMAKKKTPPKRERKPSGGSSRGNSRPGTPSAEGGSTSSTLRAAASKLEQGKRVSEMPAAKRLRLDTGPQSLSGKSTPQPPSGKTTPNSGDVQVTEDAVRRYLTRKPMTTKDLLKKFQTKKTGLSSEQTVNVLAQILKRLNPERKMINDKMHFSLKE

B1: FCP1 (protein)
chain: MEVPAAGRVPAEGAPTAAVAEVRCPGPAPLRLLEWRVAAGAAVRIGSVLAVFEAAASAQSSGASQSRVASGGCVRPARPERRLRSERAGVVRELCAQPGQVVAPGAVLVRLEGCSHPVVMKGLCAECGQDLTQLQSKNGKQQVPLSTATVSMVHSVPELMVSSEQAEQLGREDQQRLHRNRKLVLMVDLDQTLIHTTEQHCQQMSNKGIFHFQLGRGEPMLHTRLRPHCKDFLEKIAKLYELHVFTFGSRLYAHTIAGFLDPEKKLFSHRILSRDECIDPFSKTGNLRNLFPCGDSMVCIIDDREDVWKFAPNLITVKKYVYFQGTGDMNAPPGSRESQTRKKVNHSRGTEVSEPSPPVRDPEGVTQAPGVEPSNGLEKPARELNGSEAATPRDSPRPGKPDERDIWPPAQAPTSSQELAGAPEPQGSCAQGGRVAPGQRPAQGATGTDLDFDLSSDSESSSESEGTKSSSSASDGESEGKRGRQKPKAAPEGAGALAQGSSLEPGRPAAPSLPGEAEPGAHAPDKEPELGGQEEGERDGLCGLGNGCADRKEAETESQNSELSGVTAGESLDQSMEEEEEEDTDEDDHLIYLEEILVRVHTDYYAKYDRYLNKEIEEAPDIRKIVPELKSKVLADVAIIFSGLHPTNFPIEKTREHYHATALGAKILTRLVLSPDAPDRATHLIAARAGTEKVLQAQECGHLHVVNPDWLWSCLERWDKVEEQLFPLRDDHTKAQRENSPAAFPDREGVPPTALFHPMPVLPKAQPGPEVRIYDSNTGKLIRTGARGPPAPSSSLPIRQEPSSFRAVPPPQPQMFGEELPDAQDGEQPGPSRRKRQPSMSETMPLYTLCKEDLESMDKEVDDILGEGSDDSDSEKRRPEEQEEEPQPRKPGTRRERTLGAPASSERSAAGGRGPRGHKRKLNEEDAASESSRESSNEDEGSSSEADEMAKALEAELNDLM
- CTD phosphatase assay (mobility shift of GST-CTDo to GST-CTDa) (GST-CTDo): FCP1 does not dephosphorylate rCTDo even at concentrations 100 times higher than that required to dephosphorylate RNAP IIO
- phosphate released from phosphopeptide (malachite green) [1]: Mammalian FCP1, within a comparable concentration range, did not act on either phosphopeptide
- phosphate released from phosphopeptide (malachite green) [2]: Mammalian FCP1, within a comparable concentration range, did not act on either phosphopeptide

B2: SCP1 261 (protein)
chain: MDSSAVITQISKEEARGPLRGKGDQKSAASQKPRSRGILHSLFCCVCRDDGEALPAHSGAPLLVEENGAIPKTPVQYLLPEAKAQDSDKICVVIDLDETLVHSSFKPVNNADFIIPVEIDGVVHQVYVLKRPHVDEFLQRMGELFECVLFTASLAKYADPVADLLDKWGAFRARLFRESCVFHRGNYVKDLSRLGRDLRRVLILDNSPASYVFHPDNAVPVASWFDNMSDTELHDLLPFFEQLSRVDDVYSVLRQPRPGS
- CTD phosphatase activity (dephosphorylation of RNAP IIO prepared by TFIIH), with and without 7 pmol RAP74 (RAP74, P35269): RAP74 shifted the dose response curve for SCP1 catalyzed dephosphorylation of RNAP IIO to an approximately 10-fold lower concentration

B3: GST-SCP1 214 (protein)
chain: MMGRPCLLTAGRPCLWRRMAPSLRQTPVQYLLPEAKAQDSDKICVVIDLDETLVHSSFKPVNNADFIIPVEIDGVVHQVYVLKRPHVDEFLQRMGELFECVLFTASLAKYADPVADLLDKWGAFRARLFRESCVFHRGNYVKDLSRLGRDLRRVLILDNSPASYVFHPDNAVPVASWFDNMSDTELHDLLPFFEQLSRVDDVYSVLRQPRPGS
- CTD phosphatase assay (mobility shift of GST-CTDo to GST-CTDa) (GST-CTDo): SCP1 dephosphorylates rCTDo and RNAP IIO with comparable efficiency
- phosphate released from phosphopeptide (malachite green) [1]: SCP1 preferentially dephosphorylates the Ser 5 phosphopeptide compared to the Ser 2 phosphopeptide
- phosphate released from phosphopeptide (malachite green) [2]: SCP1 preferentially dephosphorylates the Ser 5 phosphopeptide compared to the Ser 2 phosphopeptide
